Results from a protein production outcome set (Wang et al. 2014).

Assay: label from the status in PepcDB records

| Sequence | protein production |
| --- | --- |
| MAVTHRTRRPLRAANKTTNAASLGATCSRQQRARLVHCVGRRTNCLAPALCSPRFTAIPRWSSNAMSMSLADARYLFNRILGLIHRSMASMRTRGWRATWQRIRVHTQAPPVALGTPLWLPQPAPFAAFALPHSAAPRVSVVIPVYNHIAHTLACLRSLAAHPPLVDVEIIVVDDGSSDATAEQLPQVAGLHYHLRASNGGFIAACNDGIALARGDFVVLLNNDTIPQPGWLDRLIDTFAQHPSAGLIGAQLVYPDGRLQESGGVVFGDGSAWSYGRFESSDDPRYAYVRAMDYCSGAAIALPRTLLQTLGGLDRRYMPAYYEDTDLAFAVRAAGYQVLVQPASVVVHDEGTSNGTDTRTGVKAYQVRNQNVFAEKWQQALKAQLPVGTVPGPALLHRGQRQVLILDECVPQPDRDSGSLRQFNLIRLLREEGAHVVFVPTRREHAGRHTQALQQLGAEVWYAPFLEGVGSWLRTHGARFAVVLLVRHHVAHACLPLLKQYAPQARTLFDTVDLHYLRERRGAEVAGDANLLHGAERTRLRELEIMAATDVTLLVSAAEQAQLRTDAPHIRTALLSNLHDVAGSGHSFAQRRDLVFVGGFRHPPNVDAVQWFISAIFPQVRAQLPDVVFHCIGADLPDALKLLADECTGVQLHGHVPDLVPFMDNARIAVAPLRFGAGVKGKINLSMAHGQPVVGTTCAVEGMHLRDGEDVCVADDANAFAAAIVRLYQDAALWQRLADNGLRNVAEYFSLDAARATVRALFIAE | failed |
| MAVWLKLSLIVLCGCLSCWVGSVWAQPPLPGFAALSAGQYPLADRQLSQAIAHGKATAALYGNRCWVRLSLERYEEAIKDCSVALDLQPHEPETWLNRGLAYYRQGQSQAAIADFDQLLQQSPTDYRAYYNRGLAYLDLAQPEQAIADFQQALERLPATEIGAAVDLHTDRCMGELHRAQPGPAVSACSQALELQPSAARARYLRALAYWQLHQPQAAIADLRQACDAFAQAGATVQLDRARQLLQHWQQQSSLVAQAPRLQSKNWPGAVTYAMDLANCHDRSPLNELEFCCDRAFQQC | failed |
| MAWNTNLRWRLPLTCLLLQVIMVILFGVFVRYDFEADAHWWSERTHKNLSDMENEFYYRYPSFQDVHVMVFVGFGFLMTFLQRYGFSAVGFNFLLAAFGIQWALLMQGWFHFLQDRYIVVGVENLINADFCVASVCVAFGAVLGKVSPIQLLIMTFFQVTLFAVNEFILLNLLKVKDAGGSMTIHTFGAYFGLTVTRILYRRNLEQSKERQNSVYQSDLFAMIGTLFLWMYWPSFNSAISYHGDSQHRAAINTYCSLAACVLTSVAISSALHKKGKLDMVHIQNATLAGGVAVGTAAEMMLMPYGALIIGFVCGIISTLGFVYLTPFLESRLHIQDTCGINNLHGIPGIIGGIVGAVTAASASLEVYGKEGLVHSFDFQGFNGDWTARTQGKFQIYGLLVTLAMALMGGIIVGLILRLPFWGQPSDENCFEDAVYWEMPEGNSTVYIPEDPTFKPSGPSVPSVPMVSPLPMASSVPLVP | not failed |
| MAYATGITFASRSILPICSRTFLSPLRVASLLVFPEKSSATFFRRVQVPHLFSTSTTTLFSSVKCSIHSTSSPETENQAVFRPNVVDILEERGLLESITSENLRSACSDPKVAPLRVYCGFDPTAESLHLGNLLGIIVLSWFQRCGHQAVGLIGGATGRVGDPSGKSLERPELDADTLEKNIAGITKIIIKILGSNPSPGGSYVIFNNYDWWKDMTMLDFLNKVGRFARVGTMMAKESVKKRLESEQGMSYTEFTYQLLQAYDFLHLFKNEGINVQIGGSDQWGNITAGTDLIRKILQAEEAAYGLTFPLLLKNDGTKFGKSEDGAIWLSPSMLSPYKFYQYFFSVPDVDVIRFLKTLTFLSLDEIKILEDQMSKPGYVPNTAQIKLAEEVTRFVHGEEGLKEAIKATEALRPGAETKLDWNLIERIAEDIPSCSLPIDRVSGLSIVDLSVSAGLFESKSAARRMLKQGGFYMNNERVDDENKRVDEEDIVEGRGLVLSAGKKNKVVVRIS | failed |
| MAYDLWYWDGIPGRGEFVRLALEAGKIPYRDRAREPGEDMLADMRRRRDTAPFAPPYLVADGMTIAQTANILLFLGVEHGLAPPDRAGRLWVNQLQLTIADLTAEAHDVHHPVAAGLYYEDQQDVALRRAADFRETRMPKFMQYFEQALDRPGGWLTDMGRWSYADLSLYHVVEGLLHAFPRRMRTLMHRYPRLMTLHARVAELPELRGYLASDRRLPFGDGIFRHYPELDGA | failed |
| MAYEDLSKKIIAGVGGKDNVKSVVHCTTRLRFKLKDESATHTDELKDTDGVITVVQSGGQYQVVIGNEVADVYETLIRVGGFADGGSVPDDYEDGEKMSIFDRFIDLISGIFTPMLGVLCAAGMIKGFVAMFVAFNWLSENSGTYKILYSIGDGFFYFLPIVLGLTAAKKFHVDQFVGMAIGMALCYPSIVALNSSKTVLSTLFSGSIFESQIHATFLGIPVVMMSYTSSVIPIILAVWFASKVQAFAKRIVPTVVKTFLVPFITLLIAVPITFLIIGPVASWLSDGISTVCVAIYNFSPIVAGLVMGAFWQVFVIFGVHWGFVAVMMANLASQGFDPILGLSLAASFAQTGVVLGILLQTKNQKTRGIALPAFISGIFGVTEPAIYGLTLPRKRPFILSCVAASIGGGIIGFAGTKMYMMGGMGLFSIPAAINSKTGVDGSVYGLIIAMAIAAVLGFALQMLFGYKSVDSNDKQTKVVETAATADPVMAGGVSVETTPTGAATKVEPNVTYNAATKLSSPETGQIIPLSEVKDEVFSSGAMGKGVAIEPTDGVLYAPADGEVALVFPTGHAVGLNTTDGAEILMHIGMDTVELEGKGFETLVQKGETVKAGQPLVKFDIEAIKAAGYPVTTPMVVTNSKNYHDVKLAFPAATEVNATEPLLQLN | failed |
| MAYEQFAYVYDELMQDVPYPEWVAWVLEQVEPGKRIADIGCGTGTATLLLADHYEVTGVDLSEEMLEIAQEKAMETNRHVDFWVQDMRELELPEPVDAITILCDSLNYLQTEADVKQTFDSAARLLTDGGKLLFDVHSPYKMETLFNGKTYATHAEQSSYIWFADPGEEPLSVVHELTFFIEGEDGRYDRVDETHHQRTYPPEQYITWLREAGFRVCAVTGDFKSDAPTETAERIFFVAEKI | not failed |
| MAYFHGTGSEPAWKQMELVALIGLAAVLLRGPIAAAWKTVASRSNERKRHQRDPAARVGKGAGSKINLAALQYANLKLALREHRCRRLPRLLVTGNDAAVSRLLPELEEAGWFDTCDALLLSSKTSNEGQPDTAWLKRLYKLRRRRPVDAVIVVTDGAADLPMPRRGTHPYSIRLARIIEILRYAAPVYVVDVAGMDPTVSSDAPIIVCALPNQADASAIEEALLLLRNQLARRGLDQLTQEDRYPYQARLSQRFDTRSKALAKWTAGLIAGQIAVRGIAFAPYPSGTSTKPEMPGSADLPHWRYLSEAARRQPGKRIGWHPMTVCVGFALVAVGLWFAGMLASGWFNSRDVYAAQQAVTEIGSARNPATRLHALLALQQQIERYEYRTQQHAPLLTRFGLNRDADVLAALWQPYVKASRELLVTPVQQNLEATLVDLGQLQTTTLDDKTSQWALSGRDDLKAYLMLAYPERTEADFLAGRLPHDWSTEARITPGEKQALAERLFKFYAQHLKANPDWKIEPRPELVAGARQTLLAVIGARSAQETLYRGILNGAGNKYPDLTLPSLTAGTDARGLLRSAAAVPGVFTRQAYEGYVADAIDAAATRRDVAADWVLTGSQVAAVTATKSADELRAALTEQYFAEYAAHWQDFMNSLQWESAATLPAAIDQLKLLADARQSPAIALMKSLAYQGGAGVQKTSLSDTLVNKAKDILGKKDDAPNSAKAAPAGPLDAAFGPVLRLAGQPGQAGQGGNNDLSLQRYLDRITALRLRLQQVSIGADADDQARQMAQAMFQGKSSDLADTQAYAQLVAASLGAEWAGMGETLFVRPVAQATQAIVLPAQASLNDVWQRFIMAEWNRIFAGRYPFANTTNDASLPELAQFLRPQGGTIQTFLATQLAGVLELQGDQWMPAAGARGITFDPEFLKTINILQRIGAHMLVQGDPQYRFELKPIATPGLTDTKLTIDGQKLHYYNQRETWNRMTWPASNLQDPGTLLQWQTEKAGTNKNYEYGGRFALLRMIGHGHIVPIDSATVQITWPAVPDTRGPLEESTDAQSGKAPYEIRFLMRSEAGQGVLELLPLRGLKLPQRVFLVGKGGAAVDVPSPAARNAKRGGV | failed |
| MCAEIPAMGPDLAIARAAAARWRKRAAEREQTRKTLDHQPAGHFTPVDSVDRLAKRAGRLQQWAAAIRALPPAAILGLPAAPPPTGGAADTREIDMVAPALSLRALAAERIIGETSDLLSVEFLEIGVAAARAVGLITTRGAPNGTGFLVAPDVVLTNNHVLPDVRTARASALEMDFETNRHGPRKEVQSFELDPDGFFLTDAPLDFTLVRVRPTSDGGQALSDYGFLPLIAAEGKIAVGEPLNIIQHPGGRVKQAALRNNRLLDLPPSNEADALNPDAVFHYETDTEKGSSGSPVFNDQWEVVALHHTGVPKTDASGAMIDADGRVVPDSQPERIVWIGNEGIRISRLYQYVFTFTFADPAMASVRDALIALWTDAGRPGWARTAAEAETIVHPPAALADPPPAAPAIIPLAEERGAAIAPDPADPAYARRPGFRSDFLGLPTPLPRLVDDSRGPLATFGEGVSELRYHHYSVLMNARRRLAYVAAVNIDHRAPFDVQRGTDRWFFDPRLPKRLQAGGDYYAANPLDRGHLVRRDDAAWGYTQAEAQLANDDTFHWTNCSPQHEVFNQSAKASGKGLLLWGNLENAVVDLAKATNGRLCVYNGPLFTEDDRPYRQDFFVPGAFWKLIALIDGQSRPRALAFRLSQAAQIADLPAEAFAPAELAAFTPVQIPVATLGALTGLDFGALAQWDPLAAGSDGVSKETLSPPRSIILTREADIVF | failed |
| MCAMSQEHQNPTPLPQVSDMAPVNPPKNQRYPRAVDLSLIECHCCGLLNQVDSDHSEQAHSRHCIRCHSPLHVRKPRSLDRTLALVIAASILYIPANVLPMTMTDSLLGRQQDTIMSGVIYFWQNSDYLVAVVIFMASIFIPMLKLIILCFLLIAVRMQESSKWHFLPEHCALLYRIVEFVGRWSMIDVFVVALLTALIQIQSLATILAGPGAVAFGAVVVLTMFASLSFDPRIIWDNYYKAQAKQHDPLQTIDNTSSISVEQ | failed |
| MCENEEYRERFPDKHFDLETVLQAKVRPICVVPERTFIGFFHREKSKEEEEKEDVSLDFLKGVMSFDSIWEEIMKQEPEESASEHVIYIVSWNDHYFVLLVNHDAYYIIDTLGERVYEGCNQAYVLKFDQDAEIKRLPSVIKDNKADMGSQKQGGKNKYEQPERSKESEEQGEEVVVCRGKESCREYIKSFLAAIPIQQVKADMKEGLVSSFHHRLQIELYYTKHLHHRQPNMFESSTTKVTVSEATVSMTVAWLLASQFSNSGGFGCEMAELLGIKV | failed |
| MCGAWFFGARVFEFFTSLFESMKVLKLLPNFLTILRIVLSLFLLFLLLNTRTYFSFLTPFQTNMISSLVFLFAALTDLLDGYIARSYKAKSRFGEIFDPLADKILILSAFLGLVYLDRVNAWIPFVILGREFFISGLRVLAANEKKDIPVNALGKYKTVSQVVAIGALLADVTYSYALVAIAVFLTLYSGIDYTIKYYKS | failed |
| MCIAVIGGMDRLERHYRQEAARTGFELRVFSQSENNIATKLKRFDALVIFTNKVSHRVRNEAMSAAKLNGIPVFQYHSCGVCTLRDCLNCLVLPAGGGTKLEHHHHHH | failed |
| MCKLIKCELLKLKSMLGAILAFFFPLLLVSIGLLNIYTGSVKISGTSEMWNAIYVQSSSLYGGILFPVFLSALVSLQWRVEFKNNNINNILITDKSHKDIYLSKIFSTFVIAFINIILYIIIIFISVKVLLPKETVKAFIFYGPIIGLLFSLPLICIQHFLSMNFKNFALPLVIGIVLSLPNFVASCYSFSTFIPYSYICKGMFFNVKNSLNVECPIYIFILTALIFVASVSLGTKVFKNKEFR | failed |
| MCLKNNAKDEIMDSTKAWYQSRTIWGALIAVFAPLFSIAGFDLPAGLHGELAEGLVTVAGGIGGLIALYGRLSATRSIR | failed |
| MCNGKVVNKGDDCQSLTFRRRSGWAMIDRSAVMEKTMDSRIQDVLDIYHAMIETEHNSPRELPPGGRDGGQDQRLRAVGQATGQFINILAKSLKSPTILELGTSFGYSGIWLAEAARASGGRLITMEMHDYKSAYARDMAVKAGLAEHVEFKVGDAVQMIGALSSGIDFVLVDLWKDLYVPCLEAFYPKLNPGAIIVADNMLRPGGDDLKRYSDAVRAKPWISSVLLPVGSGLEVSRFD | failed |
